Laboratory results published in publication PMC3118390, “PKC isoforms interact with and phosphorylate DNMT1” (BMC Biology, 2011).

T1: recombinant PKCζ (human, UniProt Q05513 1-592)
T1 construct: also called rec; PKCζ
T1 sequence (looked up): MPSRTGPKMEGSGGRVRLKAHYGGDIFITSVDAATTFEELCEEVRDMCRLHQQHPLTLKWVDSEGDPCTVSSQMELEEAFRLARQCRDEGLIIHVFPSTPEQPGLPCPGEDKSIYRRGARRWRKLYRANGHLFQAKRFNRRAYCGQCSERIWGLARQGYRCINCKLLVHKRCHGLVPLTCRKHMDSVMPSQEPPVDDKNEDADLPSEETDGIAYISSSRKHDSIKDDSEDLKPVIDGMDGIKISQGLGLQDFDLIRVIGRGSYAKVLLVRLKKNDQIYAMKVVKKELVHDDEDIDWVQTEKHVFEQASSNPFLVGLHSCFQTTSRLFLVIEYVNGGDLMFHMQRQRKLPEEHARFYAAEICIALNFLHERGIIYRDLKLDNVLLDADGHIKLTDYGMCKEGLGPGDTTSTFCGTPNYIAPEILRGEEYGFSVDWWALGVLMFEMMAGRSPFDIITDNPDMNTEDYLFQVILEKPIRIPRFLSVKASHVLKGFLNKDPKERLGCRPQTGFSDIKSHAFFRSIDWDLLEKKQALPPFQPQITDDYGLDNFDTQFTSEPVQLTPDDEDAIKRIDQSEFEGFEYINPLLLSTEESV

B1: GST fusion DNMT1 fragment 1 to 446 (domain or fragment, human, UniProt P26358 1-446, looked up)
chain: MPARTAPARVPTLAVPAISLPDDVRRRLKDLERDSLTEKECVKEKLNLLHEFLQTEIKNQLCDLETKLRKEELSEEGYLAKVKSLLNKDLSLENGAHAYNREVNGRLENGNQARSEARRVGMADANSPPKPLSKPRTPRRSKSDGEAKPEPSPSPRITRKSTRQTTITSHFAKGPAKRKPQEESERAKSDESIKEEDKDQDEKRRRVTSRERVARPLPAEEPERAKSGTRTEKEEERDEKEEKRLRSQTKEPTPKQKLKEEPDREARAGVQADEDEDGDEKDEKKHRSQPKDLAAKRRPEEKEPEKVNPQISDEKDEDEKEEKRRKTTPKEPTEKKMARAKTVMNSKTHPPKCIQCGQYLDDPDLKYGQHPPDAVDEPQMLTNEKLSIFDANESGFESYEALPQHKLTCFSVYCKHGHLCPIDTGLIEKNIELFFSGSAKPIYDDD
notes: DNA methyltransferase 1 (DNMT1), human, amino acids 1-446; also called N-terminal domain (amino acids 1-446) of DNMT1; source: E. coli BL21, purified on glutathione-Sepharose beads
B2: GST fusion DNMT1 fragment 1081 to 1409 (domain or fragment, human, UniProt P26358 1081-1409, looked up)
chain: NRFYFLEAYNAKSKSFEDPPNHARSPGNKGKGKGKGKGKPKSQACEPSEPEIEIKLPKLRTLDVFSGCGGLSEGFHQAGISDTLWAIEMWDPAAQAFRLNNPGSTVFTEDCNILLKLVMAGETTNSRGQRLPQKGDVEMLCGGPPCQGFSGMNRFNSRTYSKFKNSLVVSFLSYCDYYRPRFFLLENVRNFVSFKRSMVLKLTLRCLVRMGYQCTFGVLQAGQYGVAQTRRRAIILAAAPGEKLPLFPEPLHVFAPRACQLSVVVDDKKFVSNITRLSSGPFRTITVRDTMSDLPEVRNGASALEISYNGEPQSWFQRQLRGAQYQPIL
notes: source: E. coli BL21, purified on glutathione-Sepharose beads
B3: GST fusion DNMT1 fragment 1374 to 1616 (domain or fragment, human, UniProt P26358 1374-1616, looked up)
chain: LPEVRNGASALEISYNGEPQSWFQRQLRGAQYQPILRDHICKDMSALVAARMRHIPLAPGSDWRDLPNIEVRLSDGTMARKLRYTHHDRKNGRSSSGALRGVCSCVEAGKACDPAARQFNTLIPWCLPHTGNRHNHWAGLYGRLEWDGFFSTTVTNPEPMGKQGRVLHPEQHRVVSVRECARSQGFPDTYRLFGNILDKHRQVGNAVPPPLAKAIGLEIKLCMLAKARESASAKIKEEEAAKD
notes: as for B2

Target: T1, recombinant PKCζ
Assay: pull-down; GST fusion DNMT1 fragments on glutathione beads, pre-incubated with 100 μg/ml BSA; 10 ng recombinant PKCζ, 4°C, one hour; binding buffer 50 mM Tris pH 7.5, 28 μM ZnCl2, 1% Triton X-100, 220 mM NaCl, 10% glycerol; washes with 500 mM NaCl; blot with a PKCζ antibody
Details: both partners purified

Binder | binding result
B1 | binds
B2 | binds
B3 | binds
